Consider twelve molecules from EP4755920A1 (Simcere Pharmaceutical Co., Ltd., dated 2026).

Positions count from the first letter of the chain named.

B1: IL4R-hum-14L2H2 (antibody, V domains shown)
VH: EVQLVESGGGLVQPGGSLRLSCAASGFTFSSYAMSWVRQAPEKRLEWVAIISGGGDSTYYPDSVKGRFTISRDNAKNSLYLQMNSLRAEDTAVYYCARLHYWYFDFWGQGTTVTVSS
VL: DIQMTQSPSSLSASVGDRVTITCKASEDLYNRLAWYQQKPGKAPKLLISGATSLETGVPSRFSGSGSGRDFTLTISSLQPEDFATYYCQQYWRNPYTFGGGTKVEIK
notes: also called humanized antibody of IL4R-CHI-14, L2 + H2
B2: IL4R-hum-07H1L3 (antibody, V domains shown)
VH: EVQLVQSGAEVKKPGSSVKVSCKASGYTFSEYTIHWVRQAPGQGLEWMGWFYPGRGSIKYNEKFKDRVTITADKSTSTAYMELSSLRSEDTAVYYCTRHEYRGSNYAMDYWGQGTTVTVSS
VL: DIVMTQSPDSLAVSLGERATINCRSSQSIVHSSGNTYLQWYQQKPGQSPKLLIYKVSNRFSGVPDRFSGSGSGTDFTLTISSLQAEDVAVYYCFQGSHVPPTFGGGTKVEIK
notes: also called IL4AR-hum-07H1L3; humanized antibody of IL4R-CHI-07, H1 + L3
B3: IL4R-hum-04H7L1 (antibody, V domains shown)
VH: EVQLQESGPGLVKPSETLSLTCTVSGYSISSDYAWNWIRQPPGKGLEWIGYISYSGSSSYNPSLKSRVTISVDTSKNQFSLKLSSVTAADTAVYYCARGGLRRRGLFDYWGQGTTVTVSS
VL: DIQLTQSPSFLSASVGDRVTITCRATSSVTYMHWYQQKPGKAPKPWIYATSNLASGVPSRFSGSGSGTEFTLTISSLQPEDFATYYCQQWSSIPLTFGQGTKLEIK
notes: also called humanized antibody of IL4R-CHI-04, H7 + L1
B4: IL4R-hum-18H5L1 (antibody, V domains shown)
VH: EVTLKESGPVLVKPTETLTLTCTVSGFSLTNYGVHWIRQPPGKALEWLGVIWSGGSTDYNAAFKSRLTISKDNSKSQVVLTMTNMDPVDTATYYCARNKGTRPVFDYWGQGTTVTVSS
VL: DIQMTQSPSSLSASVGDRVTITCRASENIYSYLAWYQQKPGKAPKLLIYNAKTLAEGVPSRFSGSGSGTDFTLTISSLQPEDFATYYCQHYVSPLTFGQGTKLEIK
notes: also called humanized antibody of IL4R-CHI-18, H5 + L1
B5: IL4R-hum-13H1aL2a (antibody, V domains shown)
VH: EVQLVQSGAEVKKPGASVKVSCKASGYTFTDYYMNWVRQAPGQRLEWMGTINPYNAGTGYNQKFKGRVTITVDKSASTAYMELSSLRSEDTAVYYCARSLLRRRGAMDYWGQGTTVTVSS
VL: DIVLTQSPDSLAVSLGERATINCRASKSVSTSGYGYIHWYQQKPGQPPKLLIYLVDNLESGVPDRFSGSGSGTDFTLTISSLQAEDVATYYCQHIRELYTFGGGTKVEIK
notes: also called humanized antibody of IL4R-CHI-13, H1a + L2a
B6: IL4R-hum-17L1H4 (antibody, V domains shown)
VH: EVQLVQSGAEVKKPGASVKVSCKASGYTFTSYNMHWARQAPGQRLEWMGSIYPGNGDTSYNQKFKGRVTITVDKSASTAYMELSSLRSEDTAVYYCARGGRLRRGDWFAYWGQGTLVTVSS
VL: DIQMTQSPSSLSASVGDRVTITCRASENIYSYLIWYQQKPGKSPKLLIYDAKTLAEGVPSRFSGSGSGTDFTLTISSLQPEDFATYYCQHHYGTPLTFGGGTKVEIK
notes: also called humanized antibody of IL4R-CHI-17, L1 + H4
B7: IL4R-CHI-14 (antibody, V domains shown)
VH: B1 VH with Q3M, Q13K, R19K, A40T, S78T, N84S, A88S, V93L, Y95F, Q109T
VL: DIQMTQSSSSFSVSLGDRVTITCKASEDLYNRLAWYQQKPGNAPRLLISGATSLETGVPSRFSGSGSGRDYTLIITSLQTEDVATYYCQQYWRNPYTFGGGTKLEIK
notes: Chimeric IgG: murine variable regions on human IgG4 CH1-CH2-CH3 and human kappa constant regions; also called anti-IL4Rα chimeric antibody 14
B8: IL4R-CHI-18 (antibody, V domains shown)
VH: QVQLKQSGPGLVQPSQSLSVTCTVSGFSLTNYGVHWVRQSPGKGLEWLGVIWSGGSTDYNAAFKSRLSISKDNSKSQVFFKMNSLQADDTAIYYCARNKGTRPVFDYWGQGTTLTVSS
VL: DIQMTQSPASLSASVGETVTITCRASENIYSYLAWYQQKQGKSPQLLVYNAKTLAEGVPSRFSGSGSGTQFSLKINSLQPEDFGSYYCQHYVSPLTFGAGTKLEVK
notes: Chimeric IgG: murine variable regions on human IgG4 CH1-CH2-CH3 and human kappa constant regions; also called anti-IL4Rα chimeric antibody 18
B9: IL4R-CHI-13 (antibody, V domains shown)
VH: EVQLQQSGPVLVKPGASVKMSCKASGYTFTDYYMNWVKQRHGKSLDWIGTINPYNGGTGYNQKFKGKATLTVDKSSSTAYMELNSLTSEDSAVYFCARSLLRRRGAMDYWGQGTSVTVSS
VL: DIVLTQSPASLVVSLGQRATISCRASKSVSTSGYGYIHWYRQKPGQPPKLLIYLVSNLESGVPARFSGSGSGTDFTLNIHPVEEEDAATYYCQHIRELYTFGGGTKLEIK
notes: Chimeric IgG: murine variable regions on human IgG4 CH1-CH2-CH3 and human kappa constant regions; also called anti-IL4Rα chimeric antibody 13
B10: IL4R-CHI-07 (antibody, V domains shown)
VH: QVQLQQSGAELVKPGASVKLSCKASGYTFTEYTIHWVKQRSGQGLEWIGWFYPGRGSIKYNEKFKDKATLTADKSSSTVYMELSRLTSEDSAVYFCTRHEYRGSNYAMDYWGQGTSVTVSS
VL: DVLMTQTPLSLPVSLGDQASISCRSSQSIVHSSGNTYLQWYLQKPGQSPKLLIYKVSNRFSGVPDRFSGSGSGTDFTLKISRVEAEDLGVYYCFQGSHVPPTFGGGTKLEIK
notes: Chimeric IgG: murine variable regions on human IgG4 CH1-CH2-CH3 and human kappa constant regions; also called anti-IL4Rα chimeric antibody 07
B11: IL4R-CHI-17 (antibody, V domains shown)
VH: QAYLQQSGAELVRPGASVKMSCKASGYTFTSYNMHWAKQTPRQGLEWIGSIYPGNGDTSYNQKFKGKATLTVDKSSSTAYMQLSSLTSEDSAVYFCARGGRLRRGDWFAYWGQGTLVTVSA
VL: DIQMTQSPASLSASVGETVTITCRASENIYSYLIWYQQKQGKSPQLLVYDAKTLAEGVPSRFSGSGSGSQFSLKINSLQPEDFGTYYCQHHYGTPLTFGGGTKLELK
notes: Chimeric IgG: murine variable regions on human IgG4 CH1-CH2-CH3 and human kappa constant regions; also called anti-IL4Rα chimeric antibody 17
B12: IL4R-CHI-04 (antibody, V domains shown)
VH: DVQLQESGPGLVKPSQSLSLTCTVTGYSITSDYAWNWIRQFPGNKLEWMGYISYSGSSSYNPSLKSRISITRDTSKNQFFLQLNSVTTDDTATYYCAGGGLRRRGLFDYWGQGTTLTVSS
VL: QIVLSQSPAILSASPGEKVTMTCRATSSVTYMHWYQQKPGSSPKPWIYATSNLASGVPARFSGSGSGTSYSLTISRVEAEDTATYYCQQWSSIPLTFGAGTKLELK
notes: Chimeric IgG: murine variable regions (from hybridoma IL4R-SFM-04) on human IgG4 CH1-CH2-CH3 and human kappa constant regions; also called anti-IL4Rα chimeric antibody 04

The first assay deals with T1, hIL4Rα-ECD(26-232)-His (human, UniProt P24394 26-232).
T1 construct: Labelled with biotin (NH2-reactive) for the ELISA; unlabelled as analyte in Biacore; also called hIL4Rα-ECD-His
Put plainly: SPR (Biacore 8K), antibody captured on Protein A, antigen as analyte, 1:1 model. (In SPR one partner is held on a chip, and binding of the other changes the refractive index at the surface.)
For orientation: Kd means the constant that tells how readily two partners part at equilibrium. Low readings indicate tighter binding, high ones weaker binding. As usually defined, the koff is the rate constant with which the complex falls apart. As a reminder, the kon is the second-order rate constant of association. As to B1, the Kd was 0.154 nM, the koff was 5.07e-05 s⁻¹ and the on-rate (kon) was determined as 329000 M⁻¹ s⁻¹.
The molecule B2 returned a Kd of 0.315 nM, a koff of 0.000468 s⁻¹ and a kon of 1.48e+06 M⁻¹ s⁻¹.
In turn, B3 gave a Kd of 0.233 nM, a koff of 0.000445 s⁻¹ and a kon of 1.91e+06 M⁻¹ s⁻¹.
Taken in the same sequence, the figures for B4 were 0.0763 nM, 0.000151 s⁻¹ and 1.98e+06 M⁻¹ s⁻¹.
Taken in the same sequence, the figures for B5 were 0.0692 nM, 9.25e-05 s⁻¹ and 1.34e+06 M⁻¹ s⁻¹.
Consider B6, for which binding was put at a Kd of 0.283 nM, the koff is 0.000302 s⁻¹ and the kon came out at 1.07e+06 M⁻¹ s⁻¹.

For the next assay, the target named is T2, hIL4Rα-ECD(26-232)-mFc (human).
T2 construct: also called IL4Rα-ECD protein
The assay is described as follows: competition ELISA, hIL4R-ECD-mFc captured by anti-mFc, biotinylated human IL4 as competitor. On the technique in general: An ELISA detects its analyte on a solid surface through an enzyme-linked reagent.
What is called IC50 is the concentration that gives 50% inhibition. Low readings indicate greater potency, high ones weaker potency. Molecule B1 returned an IC50 of 2.2 nM.
In the case of B2, the IC50 was found to be 1.41 nM.
Still for that read-out and setting: to B3 belongs 1.52 nM; to B4, 2.39 nM.
Molecule B5 returned an IC50 of 1.92 nM.
Same read-out and setting: the value for B6 was 1.82 nM.

The target of a further assay is T1, hIL4Rα-ECD(26-232)-His. The assay is described as follows: SPR (Biacore 8K), antibody captured on Protein A, antigen as analyte, 1:1 model. This is another data set of the same source.
For the molecule B7, the Kd was 0.097 nM.
In the case of B8, the Kd was 0.0943 nM.
On the same count and under the same terms, the value for B9 was 0.0779 nM; that for B10 was 0.294 nM; that for B11 was 0.289 nM.
Molecule B12 gave a Kd of 0.513 nM.
